From article PMC12226076, “Structural insights and rational design of Pseudomonasputida KT2440 omega transaminases for enhanced biotransformation of (R)-PAC to (1R, 2S)-Norephedrine” (The Journal of Biological Chemistry, 2025)

Target: T1, TA_2799 (Pseudomonas putida, UniProt Q88J50)
T1 construct: gene PP_2799; pET43.1b, 6xHis tag, expressed in E. coli BL21 (DE3), Ni-NTA; homodimer; catalytic K286
Experiment: X-ray crystal structure, […] Å
Format: binding
Conditions: covalent; internal aldimine with catalytic K286

| Compound | X-ray crystal structure, 1.76 Å |
| --- | --- |
| Cc1ncc(COP(=O)(O)O)c(C=O)c1O [PLP] | covalently bound internal aldimine form of the PLP bound to the catalytic K286 residue |

Test system: C[C@H](N)c1ccccc1
Experiment: purified protein
Format: biochemical, Pseudomonas putida
Conditions: 20 mM pyruvate, 2 mM PLP, 50 mM HEPES pH 8.0, 30 °C, (S)-MBA 0-5 mM

| Compound | Km | Vmax | kcat | kcat/Km |
| --- | --- | --- | --- | --- |
| TA_2799 (Pseudomonas putida KT2440) | 6459 ± 621 µM | 0.104 µmol/min/mg | 0.072 ± 0.00465 s⁻¹ | 11.1 M⁻¹ s⁻¹ |
| TA_2799 (Pseudomonas putida KT2440; C324Y/L322F) | 1188 ± 122 µM |  | 0.02302 ± 0.000817 s⁻¹ |  |
| TA_2799 (Pseudomonas putida KT2440; L322F) | 1068 ± 566 µM | 0.042 µmol/min/mg | 0.0296 ± 0.0006 s⁻¹ | 27.7 M⁻¹ s⁻¹ |
| TA_5182 (Pseudomonas putida KT2440) | 1089 ± 117 µM | 0.007 µmol/min/mg | 0.0049 ± 0.000117 s⁻¹ | 4.48 M⁻¹ s⁻¹ |
| TA_5182 (Pseudomonas putida KT2440; G119N) | 347 ± 24 µM | 0.003 µmol/min/mg | 0.00245 ± 3.33e-05 s⁻¹ | 7.05 M⁻¹ s⁻¹ |
